Test results reported in US7592006 (UNIVERSIT CATHOLIQUE DE LOUVAIN, dated 2009).

T1: human CD2 (human, UniProt P06729 25-351)
T1 construct: whole, on cells; The plasmid is cited from Peterson and Seed, Nature 1987; also called CD2 antigen; wild-type CD2
T1 sequence (looked up): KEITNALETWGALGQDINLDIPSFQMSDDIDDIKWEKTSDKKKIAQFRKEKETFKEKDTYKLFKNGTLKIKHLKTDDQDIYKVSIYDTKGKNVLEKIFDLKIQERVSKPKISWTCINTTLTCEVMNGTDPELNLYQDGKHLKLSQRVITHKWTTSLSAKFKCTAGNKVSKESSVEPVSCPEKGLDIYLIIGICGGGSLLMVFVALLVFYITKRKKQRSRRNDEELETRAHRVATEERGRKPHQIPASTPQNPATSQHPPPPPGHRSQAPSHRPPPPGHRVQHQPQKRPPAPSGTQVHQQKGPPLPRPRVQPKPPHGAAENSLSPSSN

B1: humanized LO-CD2a (antibody, V domains shown)
VH: QVQLVQSGAEVKKPGASVKVSCKASGYTFTEYYMYWVRQAPGQGLELMGRIDPEDGSIDYVEKFKKKVTLTADTSSSTAYMELSSLTSDDTAVYYCARGKFNYRFAYWGQGTLVTVSS
VL: DVVMTQSPPSLLVTLGQPASISCRSSQSLLHSSGNTYLNWLLQRPGQSPQPLIYLVSKLESGVPDRFSGSGSGTDFTLKISGVEAEDVGVYYCMQFTHYPYTFGQGTKLEIK
notes: Variable regions were cloned into the MRC light (human kappa) and heavy (human gamma 1) chain vectors; Expressed in COS cells and purified on Protein A; also called LO-CD2aHu; humanized antibody

Tests used:
human CD2 [1] = target: T1, human CD2; experiment: two color flow cytometry on human PBMC, biotinylated LO-CD2a and Leu-5bPE; upper left quadrant taken as Leu-5b-PE positive, LO-CD2a below the quadrant limit (axes inferred: X = FL1 LO-CD2a, Y = FL2 Leu-5b-PE)
human CD2 [2] = target: T1, human CD2; experiment: two color flow cytometry on human PBMC, biotinylated LO-CD2a and Leu-5bPE; Y axis (FL2) taken as Leu-5b-PE, inferred
human CD2 [3] = target: T1, human CD2; experiment: flow cytometry on CD2-expressing Jurkat cells, 0 to 4 µg/ml antibody (FIG. 35)
Description: Transient expression in COS cells and detection of secreted antibody were carried out as described previously for the chimeric antibody. The humanized antibody was purified by affinity chromatography (Protein A). […] The Jurkat cell line, which expresses CD2, was stained with rat LO-CD2a, the humanized LO-CD2a (LO-CD2aHu), or rat IgG2b or human IgG controls. Antibody concentrations ranged from 0 to 4 ig/ml. […] Bound antibodies were detected with an isotype-specific FITC-conjugated antisera. The results shown in FIG. 35 are expressed as the percentage of cells positively stained by the antibodies over the range of concentrations mentioned hereinabove. Functional studies indicate that the humanized antibody is also capable of inhibiting a primary MLR. Nanogram quantities of LO-CD2a, LO-CD2aHu, rat IgG2b control, or human IgG1 control were added to culture wells containing equivalent numbers of human peripheral blood mononuclear cells (PBMC) from a designated responder and stimulator (irradiated cells). Control wells contained no antibody. The cultures were incubated for 5 days, then pulsed overnight with tritiated thymidine. (3HT). Proliferation is detected by the uptake of 3HT. The results, as given in Table 3 below, are expressed as the mean CPM as recorded by a Beta plate reader.

| % GATED (quadrant 1UL) (human CD2 [1]) [%] | Y MEAN fluorescence (quadrant 1UL) (human CD2 [2]) | Y MEAN fluorescence (quadrant 2UR) (human CD2 [2]) | Y MEAN fluorescence (quadrant 4LR) (human CD2 [2]) | binding result (human CD2 [3]) | Molecule |
| --- | --- | --- | --- | --- | --- |
| 23.2 | 285 | 631 | 6.54 |  | Leu-5b, mouse anti-human CD2 monoclonal antibody (Becton Dickinson) |
|  |  |  |  | binds | B1 |
